Assay results published in the supplement of paper PMC9112550, “Optimization of the antimicrobial peptide Bac7 by deep mutational scanning” (BMC Biology, 2022).

Tested on: Escherichia coli TOP10
Assay: shrunken log2 fold change of peptide-encoding DNA abundance (4.5 h post-induction vs induction); higher = less antimicrobial activity (less host growth inhibition)
Conditions: time post-induction: 4.5 h; library: site-saturation at positions 5, 18, 19, 20
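Further: peptides expressed intracellularly from a pBAD plasmid library in pooled LB shake-flask culture, induced with 0.3% L-arabinose, DNA abundance read by NGS, three biological replicates, DESeq2 with apeglm shrinkage.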

Sequence	shrunken log2 fold change
RRIRNRPPRLPRPRPRPHQPPRP	0.0075
RRIRARPPRLPRPRPRPSSRPRP	-0.167
RRIRNRPPRLPRPRPRPQFQPRP	0.0437
RRIRKRPPRLPRPRPRPGSFPRP	0.133
RRIRHRPPRLPRPRPRPPICPRP	-0.0463
RRIRERPPRLPRPRPRPIMIPRP	-0.246
RRIRYRPPRLPRPRPRPHFMPRP	-0.0918
RRIRGRPPRLPRPRPRPTDKPRP	0.705
RRIRRRPPRLPRPRPRPFMNPRP	0.0829
RRIRARPPRLPRPRPRPDNDPRP	-0.196
RRIRPRPPRLPRPRPRPDVRPRP	1.79
RRIRIRPPRLPRPRPRPAADPRP	0.0637
RRIRSRPPRLPRPRPRPKYIPRP	-0.383
RRIRSRPPRLPRPRPRPKMWPRP	0.458
RRIRVRPPRLPRPRPRPHPDPRP	0.015
RRIRGRPPRLPRPRPRPAEQPRP	1.25
RRIRTRPPRLPRPRPRPGSNPRP	-0.415
RRIRYRPPRLPRPRPRPAKSPRP	-0.156
RRIRHRPPRLPRPRPRPGDHPRP	-0.00776
RRIRWRPPRLPRPRPRPQRNPRP	0.0121
RRIRSRPPRLPRPRPRPLDIPRP	0.00915
RRIRIRPPRLPRPRPRPKEAPRP	0.0518
RRIRQRPPRLPRPRPRPSLVPRP	-0.0806
RRIRPRPPRLPRPRPRPGKSPRP	-0.208
RRIRIRPPRLPRPRPRPIGVPRP	-0.0176

Sequence	shrunken log2 fold change
RRIRFRPPRLPRPRPRPDFMPRP	-0.27
RRIRLRPPRLPRPRPRPFREPRP	-0.0266
RRIRARPPRLPRPRPRPHKTPRP	0.0429
RRIRMRPPRLPRPRPRPGNKPRP	-0.0821
RRIRPRPPRLPRPRPRPGQRPRP	0.44
RRIRMRPPRLPRPRPRPIALPRP	0.0271
RRIRSRPPRLPRPRPRPDHIPRP	-0.119
RRIRHRPPRLPRPRPRPPCTPRP	0.0262
RRIRERPPRLPRPRPRPQDAPRP	0.0745
RRIRWRPPRLPRPRPRPSWNPRP	-0.212
RRIRIRPPRLPRPRPRPQWKPRP	-0.186
RRIRARPPRLPRPRPRPFMVPRP	-0.235
RRIRRRPPRLPRPRPRPNPAPRP	0.643
RRIRPRPPRLPRPRPRPDCAPRP	0.354
RRIRERPPRLPRPRPRPTEFPRP	0.000688
RRIRYRPPRLPRPRPRPTKCPRP	-0.544
RRIRVRPPRLPRPRPRPHIRPRP	-0.503
RRIRSRPPRLPRPRPRPGVLPRP	0.0866
RRIRTRPPRLPRPRPRPACMPRP	0.0444
RRIRGRPPRLPRPRPRPFMTPRP	0.837
RRIRHRPPRLPRPRPRPCMCPRP	-0.245
RRIRNRPPRLPRPRPRPQGSPRP	-0.0968
RRIRLRPPRLPRPRPRPRFIPRP	-0.243
RRIRRRPPRLPRPRPRPWIQPRP	0.0321
RRIRWRPPRLPRPRPRPSIGPRP	-0.175

Sequence	shrunken log2 fold change
RRIRQRPPRLPRPRPRPQQAPRP	-0.0512
RRIRERPPRLPRPRPRPLSRPRP	0.00391
RRIRKRPPRLPRPRPRPEFYPRP	-0.0131
RRIRDRPPRLPRPRPRPLTHPRP	0.179
RRIRTRPPRLPRPRPRPRCPPRP	0.0716
RRIRPRPPRLPRPRPRPRQVPRP	0.474
RRIRARPPRLPRPRPRPPNYPRP	-0.0985
RRIRLRPPRLPRPRPRPDEFPRP	0.0159
RRIRVRPPRLPRPRPRPEPIPRP	0.0124
RRIRRRPPRLPRPRPRPWFNPRP	-0.241
RRIRFRPPRLPRPRPRPPPWPRP	0.961
RRIRCRPPRLPRPRPRPYNKPRP	-1.02
RRIRQRPPRLPRPRPRPACTPRP	-0.475
RRIRYRPPRLPRPRPRPVSYPRP	-0.00297
RRIRTRPPRLPRPRPRPVDPPRP	-0.175
RRIRCRPPRLPRPRPRPQGQPRP	0.155
RRIRWRPPRLPRPRPRPLRRPRP	0.587
RRIRGRPPRLPRPRPRPPNEPRP	0.947
RRIRRRPPRLPRPRPRPQTRPRP	0.511
RRIRTRPPRLPRPRPRPDMNPRP	-0.0432
RRIRVRPPRLPRPRPRPMERPRP	0.0131
RRIRKRPPRLPRPRPRPALSPRP	0.253
RRIRGRPPRLPRPRPRPKEAPRP	0.948
RRIRHRPPRLPRPRPRPPTEPRP	0.159
RRIRLRPPRLPRPRPRPCPQPRP	-0.391

Sequence	shrunken log2 fold change
RRIRERPPRLPRPRPRPFHGPRP	-0.0459
RRIRVRPPRLPRPRPRPMLHPRP	-0.192
RRIRNRPPRLPRPRPRPENHPRP	-0.124
RRIRERPPRLPRPRPRPMYMPRP	-0.0017
RRIRLRPPRLPRPRPRPGGHPRP	0.0643
RRIRQRPPRLPRPRPRPDYNPRP	-0.161
RRIRNRPPRLPRPRPRPPKCPRP	0.189
RRIRQRPPRLPRPRPRPTEKPRP	-0.047
RRIRARPPRLPRPRPRPSQCPRP	-0.121
RRIRDRPPRLPRPRPRPRGLPRP	0.825
RRIRRRPPRLPRPRPRPYNQPRP	-0.207
RRIRYRPPRLPRPRPRPAQWPRP	-0.294
RRIRHRPPRLPRPRPRPGLAPRP	0.366
RRIRCRPPRLPRPRPRPIDWPRP	0.0664
RRIRWRPPRLPRPRPRPSVDPRP	0.0991
RRIRFRPPRLPRPRPRPSCMPRP	-0.831
RRIRSRPPRLPRPRPRPREYPRP	-0.0557
RRIRRRPPRLPRPRPRPWVCPRP	0.0925
RRIRVRPPRLPRPRPRPWFEPRP	-0.313
RRIRHRPPRLPRPRPRPCCMPRP	-0.43
RRIRARPPRLPRPRPRPVPEPRP	0.499
RRIRRRPPRLPRPRPRPGGAPRP	0.492
RRIRRRPPRLPRPRPRPPTWPRP	0.336
RRIRARPPRLPRPRPRPFWRPRP	0.36
RRIRNRPPRLPRPRPRPYHLPRP	0.0195

Sequence	shrunken log2 fold change
RRIRPRPPRLPRPRPRPIVYPRP	0.175
RRIRKRPPRLPRPRPRPIWEPRP	0.295
RRIRFRPPRLPRPRPRPSGEPRP	-0.135
RRIRHRPPRLPRPRPRPSFVPRP	-0.38
RRIRYRPPRLPRPRPRPDDGPRP	0.0672
RRIRYRPPRLPRPRPRPCKTPRP	-0.154
RRIRDRPPRLPRPRPRPPPLPRP	0.586
RRIRNRPPRLPRPRPRPMTPPRP	0.244
RRIRMRPPRLPRPRPRPYEMPRP	0.0693
RRIRLRPPRLPRPRPRPNWQPRP	0.351
RRIRLRPPRLPRPRPRPINRPRP	0.0141
RRIRWRPPRLPRPRPRPVFLPRP	-0.0837
RRIRHRPPRLPRPRPRPGATPRP	0.0387
RRIRRRPPRLPRPRPRPTIRPRP	0.129
RRIRWRPPRLPRPRPRPYCSPRP	-0.0518
RRIRNRPPRLPRPRPRPCLQPRP	-0.344
RRIRSRPPRLPRPRPRPYKKPRP	-0.0605
RRIRDRPPRLPRPRPRPGTPPRP	0.223
RRIRRRPPRLPRPRPRPVRRPRP	0.619
RRIRYRPPRLPRPRPRPRWMPRP	-0.208
RRIRNRPPRLPRPRPRPFCCPRP	-0.257
RRIRHRPPRLPRPRPRPGRVPRP	-0.129
RRIRLRPPRLPRPRPRPTGVPRP	-0.0506
RRIRCRPPRLPRPRPRPHCTPRP	-0.88
RRIRWRPPRLPRPRPRPARTPRP	0.705
